# Positions count from the first letter of the chain named.
# T1: human IL-23R expressed on the cell surface of stably transfected iLite and HEK cell lines (human, UniProt Q5VWK5 24-629)
# T1 construct: whole, on cells; Same receptor on two transfected cell lines; the cell line is named under assay; also called human IL-23R iLite cells; human IL-23R HEK cells
# T1 sequence (looked up): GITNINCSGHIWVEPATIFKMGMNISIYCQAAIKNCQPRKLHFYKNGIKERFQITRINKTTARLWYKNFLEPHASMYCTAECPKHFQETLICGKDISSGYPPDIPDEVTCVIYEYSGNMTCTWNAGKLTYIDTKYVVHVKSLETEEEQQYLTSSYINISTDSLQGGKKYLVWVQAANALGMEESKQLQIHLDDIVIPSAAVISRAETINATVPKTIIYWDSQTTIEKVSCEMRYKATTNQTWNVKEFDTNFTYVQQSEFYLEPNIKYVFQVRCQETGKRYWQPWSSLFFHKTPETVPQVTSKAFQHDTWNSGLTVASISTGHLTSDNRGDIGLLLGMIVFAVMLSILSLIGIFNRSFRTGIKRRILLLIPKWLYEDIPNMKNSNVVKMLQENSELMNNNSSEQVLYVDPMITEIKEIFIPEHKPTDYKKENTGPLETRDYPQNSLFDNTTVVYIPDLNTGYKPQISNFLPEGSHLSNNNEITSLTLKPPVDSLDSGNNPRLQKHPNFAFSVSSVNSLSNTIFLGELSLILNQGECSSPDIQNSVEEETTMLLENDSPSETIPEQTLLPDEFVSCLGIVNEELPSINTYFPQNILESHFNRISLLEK
# B1: I23RB86 (antibody, mouse IgG2a, kappa, V domains shown)
# VH: EVQLQQSGAELVKPGASVKLSCKASGYTFTSYWLHWVKQRPGQGLEWIGEIDPSDSYTYYNQKFKGKATLTVDKSSSTAYMQLSSLTSEDSAVYYCARSPYDYDWGAYWGQGTSVTVSS
# VL: DIVMTQSPSSMSVSLGDTVSITCHASQGISSNIGWLQQKPGKSFKGLIYHGTNLEDEVPSRFSGSGSGADYSLTIGSLESEDFADYYCVQYAQFPWTFGAGTKLEMKR
# notes: immunization; mouse IgG2a/kappa
# B2: I23RB74 (antibody, mouse IgG2a, kappa, V domains shown)
# VH: DVQLQESGPGLVKPSQSLSLTCSVTGYSITSGYYWNWIRQFPGNKLEWMGYISYDGSFNYNPSLKNRLSITRDTSMNQFFLKLNSVTSEDTATYYCARAEIYYDYDGDFDYWGQGTTLTVSS
# VL: DIVLTQSPASLAVSLGQRATISCRASKSVSTSGSNFLHWYQQKPGQPPKLLIYFASNLESGVPARFSGSGSGTDFTLNIHPVEEEDAATYYCQHSRELPHTFGAGTKLELKR
# notes: as for B1
# B3: I23RB32 (antibody, mouse IgG2a, kappa, V domains shown)
# VH: EFQLQQSGPELVKPGASVKLSCKASGYTFTDYALHWVKQSPGQGLEWIGWIYPGGGNTYYNDKFKGKATMTADKSSSTAYMQLSSLTSEDSAVYFCARGRLRRDYPMDYWGQGTSVTVSS
# VL: DIVMTQSPSSLTVTAGEKVTMSCKSSQSLLNSGNQKNYLTWYQQKPGQPPKLLIYWASTRESGVPDRFTGSGSGTDFTLTISSVQAEDLAVYYCQNDYTYPLTFGSGTKLEIKR
# notes: as for B1
# B4: I23RB73 (antibody, mouse IgG2a, kappa, V domains shown)
# VH: EVQLQQSGAELVKPGASVKISCKASGYTFTDHAIHWVKQRPEQGLEWIGYISLGNGDIKYSEKFRGKATLTADKTSNTAYMQLNSLTSEDSAVYFCKRSRVLRWTTYWYFDVWGAGTSVTVSS
# VL: DIVMTQSHKFMSTSVGDRVSITCKASQDVSTAVAWYQQKPGQSPKLLIYWASTRLTGVPDRFTGSGSGTDYTLTISSVQAEDLALYYCQQYYNTPLTFGAGTKLELKR
# notes: as for B1
# B5: I23RB61 (antibody, mouse IgG2a, kappa, V domains shown)
# VH: DVQLQESGAELVKPGASVKLSCKSFDYTFTSFDINWMKQRPGQGLEWIGWIFPGSGTTNYNEKFKGKATLTADKSSSTAYMHLTSLTSEDSAVYFCARRLTGTRYFDVWGTGTTLTVSS
# VL: DIQMTQSHKFLSTSVGDRITITCKASQDVITAVAWYQQKSGQSPKLLIYWASTRHTGVPDRFTGSGSGTDYTLTISNVQAEDLALYYCQQHYTTPPTFGAGTKLELKR
# notes: as for B1
# B6: I23RB47 (antibody, mouse IgG2a, kappa, V domains shown)
# VH: QVQLKESGPGLVAPSQSLSITCTVSGFSLTNYDIHWVRQSPGKGLEWLGVIWSDGRTDYKGAFISRLSISKDNSKSQVFFKMNSLQADDTAIYYCARNNYYRYGRNTMDYWGQGTSVTVSS
# VL: DIVLTQSPASQSASLGESVTITCLASQTIGSWLAWYQQKPGKSPQLLIYAATRLADGVPSRFSGSGSGTKFSFKISSLQAEDFVFYYCHQLYSIPLTFGGGTKLEMKR
# notes: as for B1
# B7: I23RB83 (antibody, mouse IgG2a, kappa, V domains shown)
# VH: DVQLQESGPGLVAPSQSLSITCTVSGFSLTNYDVHWVRQSPGKGLEWLGVIWSDGSTDYNAAFISRLSFSKDNSKRQVFFKMNSLQPDDTAIYYCARNNYYRYGRNPMDYWGQGTTVTVSS
# VL: B6 VL with V3Q, L4M, R53S, F85S, H89Q, I94S, M106I
# notes: as for B1
# B8: I23RB77 (antibody, mouse IgG2a, kappa, V domains shown)
# VH: DVQLQESGPGLVAPSQSLSITCTVSGFSLSRYSVHWVRQPPGKGLEWLGMIWGSGSTDYNSALKSRLSINKDNSKSQVFLKMNSLQTDDTAMYYCARVYYGGSPYAMDYWGQGTTVTVSS
# VL: DIVMTQSPASLALSLGQRATISCRASESVDSYGNSFMHWYQQKPGQPPKLLIYLASNLESGVPARFSGSGSRTDFTLTIDPVEADDAAIYYCQQNNEEPNTFGAGTKLEMKR
# notes: as for B1
# B9: I23RB93 (antibody, mouse IgG2a, kappa, V domains shown)
# VH: QVQLKESGPGLVQPSQSLSITCTVSGFSLTSYGVHWVRQSPGKGLEWLGVIWSGVSTDYNAAFISRLSISKDNSKSQVFFKMNSLQADDTAIYYCARSRGSYYFDYWGQGTTLTVSS
# VL: DIKMTQSPATLSVTPGDSVSLFCRASQSISNNLHWYQQKSHESPRLLIKYASQSISGIPSRFSGSGSGTDFTLSINSVETEDFGMYFCQQSNSWPLTFGGGTKLEIKR
# notes: as for B1
# B10: I23RB33 (antibody, mouse IgG2a, kappa, V domains shown)
# VH: EVQLQQSGAELVKPGASVKLSCTASGFNIRDIYIHWVKQRPEQGLEWIGRIDPANGHSIYAAKFQGKATITADTSLNIAYMQLSSLTSGDTAVYYCARGSDNDYGRVLAYWGLGTSVTVSS
# VL: DIVLTQSPAIMSASPGEKVTMTCRASSSVRSSYLHWYQQKSGASPKLWIYSTSNLASGVPARFSGSGSGTSYSLTITSVEAEDAATYYCQQYTGNPIFTFGSGTKLELKR
# notes: as for B1
# B11: I23RB98 (antibody, mouse IgG2a, kappa, V domains shown)
# VH: EFQLQQSGPELVKPGASVKMSCKASGYTFTNYYMHWVKQSHGKTIEWIGYIYPNSGDTSYNQKFKGKATLTVDKSSSTAYMELRSLTSEDSAVYTCARFGGFYDAMDYWGQGTTVTVSS
# VL: DIVLTQSPAIMSASLGERVTMTCTASSSVSSSYLHWYQQKPGSSPKLWIYSTSNLASGVPARFSGSGSGTSYSLTISSMEAEDAATYYCHQYHRSPFTFGSGTKLEMKR
# notes: as for B1
# B12: I23RB57 (antibody, mouse IgG2a, kappa, V domains shown)
# VH: B11 VH with T95N, T114S
# VL: B11 VL with L4M, M107I
# notes: as for B1
# B13: I23RB82 (antibody, mouse IgG2a, kappa, V domains shown)
# VH: QVQLKESGPGLVAPSQSLSITCTVSGFSLTNYALHWFRQSPGKGLEWLGVIWSDGSTDYNSPFISRLSISKDNSKSQVFFKMNSLQADDTAIYYCARSRSNYGRWYFDVWGAGTTLTVSS
# VL: QIVLSQSHKFMSTSVGDRVSITCKASQDVSTAVAWYQQKPGQSPKLLIYSAFYRYTGVPDRFTGSGSGTDFTFTISSVQAEDLAVYYCQQHYSTPYTFGGGTKLEIKR
# notes: as for B1
# B14: I23RB71 (antibody, mouse IgG2a, kappa, V domains shown)
# VH: DVQLQESGPDLVKPSQSLSLTCTVTDYSITRGYNWHWIRQFPGNKLEWMGYIHYSGSTNYNPSLKSRISITRDTSKNQFFLQLNSVTTEDTATYYCARQYGLKAMDYWGQGTSVTVSS
# VL: B13 VL with Q1D, L4M, S5T, S30I, F52S, Y87F, Y92F, S93G, G100S, I106M
# notes: as for B1
# B15: I23RB81 (antibody, mouse IgG2a, kappa, V domains shown)
# VH: DVQLQESGPGLVAPSQSLSITCTVSGFSLTSYAINWVRQPPGKGLEWLGVIWTGGGTNYNSALKSRLSISKDNSKSQLFLKMNSLQTDDTARYYCARNRDYSNYRWYFDVWGAGTSVTVSS
# VL: B13 VL with Q1D, L4M, S5T, T22I, F52S, Y96L, G100A, K103R
# notes: as for B1
# Target: T1, human IL-23R expressed on the cell …
# Experiment: flow cytometry on human IL-23R HEK cells, Expt E (11-point, 384well)
# Protocol: HEK-IL-23R cell concentration response mAb binding (11-point, 384-well assay). […] IL-23R mAbs were allowed to bind to cells for 30 minutes, at 37° C. […] Cells were next washed twice in ice-cold stain buffer, then resuspended in a final volume of 10 μL with Sytox Green viability dye (ThermoFisher, Cat #S7020). Plates were kept on ice until run for analysis on the iQue. All washes were performed by centrifugation (800 rcf, 3 minutes) followed by automated aspiration to remove supernatants with plate washers. Cell-binding to HEK-IL-23R cells was measured with FlowJo, by gating for single, viable cells and determining the geometric mean fluorescence intensity (MFI) for the 647 detection antibody. Geometric mean fluorescence intensities were plotted over log mAb concentrations fitted with a dose response curve with variable slope using GraphPad Prism.
EC50,MFI (6.4 nM),Binder
22.8 nM,164000 MFI,B1
13 nM,185000 MFI,B2
5.1 nM,292000 MFI,B3
11.6 nM,158000 MFI,B4
> 50 nM,118000 MFI,B5
4.1 nM,364000 MFI,B6
31.5 nM,121000 MFI,B7
4.8 nM,184000 MFI,B8
8.9 nM,193000 MFI,B9
5.6 nM,306000 MFI,B10
28.7 nM,59400 MFI,B11
> 50 nM,99600 MFI,B12
9.8 nM,181000 MFI,B13
3.4 nM,110000 MFI,B14
7.2 nM,181000 MFI,B15

# Target: T1, human IL-23R expressed on the cell …
# Experiment: flow cytometry on human IL-23R HEK cells, Expt D (8-point, 96well)
# Protocol: HEK-IL-23R cell concentration response mAb binding (8-point, 96-well assay). […] HEK-IL-23R and HEK-parental cells (12.5 μL of each, 120000 cells total) were plated in 2× replicate on 96-well V-bottom plates (Corning, Cat #3357) into 37° C. warmed Assay medium containing serially diluted IL-23R mAbs to a final volume of 150 μL. IL-23R mAbs were allowed to bind to cells for 30 minutes, at 37° C. […] Cells were next washed twice in ice-cold stain buffer, then resuspended in a final volume of 30 μL with Sytox Green viability dye (ThermoFisher, Cat #S7020). Plates were kept on ice until run for analysis on the iQue. All washes were performed by centrifugation (800 rcf, 3 minutes) followed by flick decantation to remove supernatants. Cell-binding to HEK-IL-23R cells was measured with FlowJo, by gating for single, viable cells and determining the geometric mean fluorescence intensity (MFI) for the 647 detection antibody. Geometric mean fluorescence intensities were plotted over log mAb concentrations fitted with a dose response curve with variable slope using GraphPad Prism.
row,EC50,Binder
1,1.2 nM,B1
2,0.3 nM,B2
3,0.4 nM,B3
4,1.8 nM,B4
5,0.6 nM,B5
6,0.2 nM,B6
7,0.7 nM,B7
8,0.2 nM,B8
9,0.5 nM,B9
10,0.2 nM,B10
11,1.9 nM,B11
12,5 nM,B12
13,0.6 nM,B13
14,~6.7 nM,B14
15,0.9 nM,B15

# From patent publication US20250179196A1 (Janssen / Centocor, published 2025)
